This is an account of results in patent publication US20190322765A1 (Hoffmann-La Roche, published 2019).

The target of assay [1] is T1, human IL-2R α-subunit, monomeric, with AcTev cleavage site and Avi His tag (human).
T1 construct: also called Hu IL-2R α; CD25
T1 chain: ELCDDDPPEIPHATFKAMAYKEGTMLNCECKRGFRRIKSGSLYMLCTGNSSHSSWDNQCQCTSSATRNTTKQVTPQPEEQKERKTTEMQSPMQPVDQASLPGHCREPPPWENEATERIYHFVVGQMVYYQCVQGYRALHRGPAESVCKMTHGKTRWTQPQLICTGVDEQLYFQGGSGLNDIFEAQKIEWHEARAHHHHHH
The experiment in a line: SPR, receptor on CM5, 25°C, kinetic.

The target in assay [2] is T2, human IL-2R βγ heterodimer, subunit-Fc knobs-into-holes fusion (human).
T2 construct: The entries may hold a leader peptide; also called Hu IL-2R βγ; human IL2-R β knob γ hole heterodimer
The experiment in a line: SPR, receptor on CM5, 25°C, kinetic.

Assay [3] concerns the target T1, human IL-2R α-subunit, monomeric, with …. Put plainly: SPR, receptor on CM5, 25°C.
The target in assay [4] is T3, cynomolgus IL-2R α-subunit, recombinant monomeric (cynomolgus, UniProt H6WS54 22-240).
T3 construct: also called Cyno IL-2R α
T3 sequence: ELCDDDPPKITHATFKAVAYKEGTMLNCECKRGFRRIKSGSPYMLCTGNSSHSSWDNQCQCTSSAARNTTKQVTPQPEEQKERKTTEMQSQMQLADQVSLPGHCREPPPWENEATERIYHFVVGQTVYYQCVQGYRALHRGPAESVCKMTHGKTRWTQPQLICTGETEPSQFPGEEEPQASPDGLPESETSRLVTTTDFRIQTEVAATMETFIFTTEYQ
The experiment in a line: SPR, receptor on CM5, 25°C.

Assay [5] addresses T4, murine IL-2R α-subunit, recombinant monomeric (murine, UniProt P01590 22-236, limits assumed).
T4 construct: also called Mu IL-2R α
T4 sequence (looked up): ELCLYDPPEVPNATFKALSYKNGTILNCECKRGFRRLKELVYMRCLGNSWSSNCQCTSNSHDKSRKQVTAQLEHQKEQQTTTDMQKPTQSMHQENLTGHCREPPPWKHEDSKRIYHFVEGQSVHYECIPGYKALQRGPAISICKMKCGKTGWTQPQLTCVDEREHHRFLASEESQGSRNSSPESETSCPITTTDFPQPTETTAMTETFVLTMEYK
Put plainly: SPR, receptor on CM5, 25°C.

Assay [6] concerns the target T5, human FAP expressed on stably transfected HEK293 cells (human, UniProt Q12884 1-760).
T5 construct: whole, on cells
Put plainly: FACS on HEK 293-human FAP cells, median fluorescence against concentration.

Assay [7] deals with T5, human FAP expressed on stably …. The experiment in a line: FACS on FAP-expressing HEK cells.
Assay [8] has as its target T6, murine IL-2R βγ heterodimer (β knob γ hole Fc fusion) (murine, UniProt P16297 27-240; P34902 23-263).
T6 construct: also called Mu IL-2R βγ; mouse IL-2R βγ heterodimer; not shown: Fc knob/hole part
T6 sequence (looked up) 1: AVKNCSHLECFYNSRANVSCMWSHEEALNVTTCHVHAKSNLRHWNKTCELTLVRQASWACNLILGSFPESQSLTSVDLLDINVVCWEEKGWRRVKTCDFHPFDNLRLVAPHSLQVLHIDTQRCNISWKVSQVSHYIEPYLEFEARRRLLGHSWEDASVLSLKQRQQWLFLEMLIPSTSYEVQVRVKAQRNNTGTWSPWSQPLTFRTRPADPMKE
T6 sequence (looked up) 2: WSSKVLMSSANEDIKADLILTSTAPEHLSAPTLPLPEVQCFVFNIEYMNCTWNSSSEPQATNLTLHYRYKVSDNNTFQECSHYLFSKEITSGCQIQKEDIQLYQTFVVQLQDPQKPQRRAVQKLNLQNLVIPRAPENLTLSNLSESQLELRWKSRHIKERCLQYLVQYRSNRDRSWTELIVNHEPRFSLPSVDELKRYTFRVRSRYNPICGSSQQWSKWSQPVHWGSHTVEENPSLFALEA
Put plainly: SPR, receptor on CM5, 37°C, 1:1 fit.

Assay [9] addresses T7, cynomolgus IL-2R βγ heterodimer (β knob γ hole Fc fusion) (cynomolgus).
T7 construct: also called Cyno IL-2R βγ
The experiment in a line: SPR, receptor on CM5, 37°C, 1:1 fit.

The target of assay [10] is T2, human IL-2R βγ heterodimer, subunit-Fc …. The experiment in a line: SPR, receptor on CM5, 37°C, 1:1 fit.
A further assay deals with T8, human FAP-His (human, UniProt Q12884 27-760).
T8 construct: also called Hu FAP; His-tagged human FAP; not shown: His tag
The experiment in a line: SPR bridging: construct captured on immobilized human IL-2R βγ, human FAP analyte, 1:1 fit, 25°C.

In assay [11] the target is T6, murine IL-2R βγ heterodimer (β knob γ …). The experiment in a line: SPR, receptor on CM5, 25°C, 1:1 fit.
Assay [12] addresses T7, cynomolgus IL-2R βγ heterodimer (β knob …). Put plainly: SPR, receptor on CM5, 25°C, 1:1 fit.
Assay [13] has as its target T2, human IL-2R βγ heterodimer, subunit-Fc …. Put plainly: SPR, receptor on CM5, 25°C, 1:1 fit.
Assay [14] has as its target T9, human DPPIV on transfected HEK 293 cells (human, UniProt P27487 1-766).
T9 construct: whole, on cells; also called CD26
The experiment in a line: FACS on HEK 293-human DPPIV cells, with HEK mock-transfected cells, cells only and sec. antibody as controls; concentration not shown.

For assay [15], the target named is FAP on GM05389 fibroblasts. Put plainly: FACS on GM05389 fibroblasts, surface-bound construct detected with secondary antibody after the times shown (internalization analysis); concentration not shown.

Where “and” joins values, the source holds several entries; their conditions need not be identical. Equal entries are not always repeated.

B1: MHLG1-KV9 Fab-IL-2 qm-Fab (other)
chain: EVQLVESGGGLVKPGGSLRLSCAASGFTFSNYWMNWVRQAPGKGLEWVAEIRLKSNNFGRYYAASVKGRFTISRDDSKNTLYLQMNSLKTEDTAVYYCTTYGNYVGHYFDHWGQGTTVTVSSASTKGPSVFPLAPSSKSTSGGTAALGCLVKDYFPEPVTVSWNSGALTSGVHTFPAVLQSSGLYSLSSVVTVPSSSLGTQTYICNVNHKPSNTKVDKKVEPKSCDSGGGGSGGGGSGGGGAPASSSTKKTQLQLEHLLLDLQMILNGINNYKNPKLTRMLTAKFAMPKKATELKHLQCLEEELKPLEEVLNGAQSKNFHLRPRDLISNINVIVLELKGSETTFMCEYADETATIVEFLNRWITFAQSIISTLTSGGGGSGGGGSGGGGEVQLVESGGGLVKPGGSLRLSCAASGFTFSNYWMNWVRQAPGKGLEWVAEIRLKSNNFGRYYAASVKGRFTISRDDSKNTLYLQMNSLKTEDTAVYYCTTYGNYVGHYFDHWGQGTTVTVSSASTKGPSVFPLAPSSKSTSGGTAALGCLVKDYFPEPVTVSWNSGALTSGVHTFPAVLQSSGLYSLSSVVTVPSSSLGTQTYICNVNHKPSNTKVDKKVEPKSCD
light: DIQLTQSPSFLSASVGDRVTITCKASQNVDTNVAWYQQKPGQAPRPLIYSASYRYTGVPSRFSGSGSGTEFTLTISSLQPEDFATYYCQQYNSYPLTFGGGTKVEIKRTVAAPSVFIFPPSDEQLKSGTASVVCLLNNFYPREAKVQWKVDNALQSGNSQESVTEQDSKDSTYSLSSTLTLSKADYEKHKVYACEVTHQGLSSPVTKSFNRGEC
notes: Fab-IL-2-Fab immunoconjugate against MCSP with quadruple mutant IL-2; also called MHLG1 KV9 MCSP-targeted Fab-IL2QM-Fab
As to B1, the binding result in assay [1] is reported as “no binding (tested: 33.3 nM)”. For the same molecule, the Kd in assay [2] is 7.3 nM and 10.7 nM.

B2: 29B11 Fab-IL-2 qm-Fab (other)
chain: EVQLLESGGGLVQPGGSLRLSCAASGFTFSSYAMSWVRQAPGKGLEWVSAIIGSGGITYYADSVKGRFTISRDNSKNTLYLQMNSLRAEDTAVYYCAKGWFGGFNYWGQGTLVTVSSASTKGPSVFPLAPSSKSTSGGTAALGCLVKDYFPEPVTVSWNSGALTSGVHTFPAVLQSSGLYSLSSVVTVPSSSLGTQTYICNVNHKPSNTKVDKKVEPKSCDSGGGGSGGGGSGGGGAPASSSTKKTQLQLEHLLLDLQMILNGINNYKNPKLTRMLTAKFAMPKKATELKHLQCLEEELKPLEEVLNGAQSKNFHLRPRDLISNINVIVLELKGSETTFMCEYADETATIVEFLNRWITFAQSIISTLTSGGGGSGGGGSGGGGEVQLLESGGGLVQPGGSLRLSCAASGFTFSSYAMSWVRQAPGKGLEWVSAIIGSGGITYYADSVKGRFTISRDNSKNTLYLQMNSLRAEDTAVYYCAKGWFGGFNYWGQGTLVTVSSASTKGPSVFPLAPSSKSTSGGTAALGCLVKDYFPEPVTVSWNSGALTSGVHTFPAVLQSSGLYSLSSVVTVPSSSLGTQTYICNVNHKPSNTKVDKKVEPKSCD
light: EIVLTQSPGTLSLSPGERATLSCRASQSVTSSYLAWYQQKPGQAPRLLINVGSRRATGIPDRFSGSGSGTDFTLTISRLEPEDFAVYYCQQGIMLPPTFGQGTKVEIKRTVAAPSVFIFPPSDEQLKSGTASVVCLLNNFYPREAKVQWKVDNALQSGNSQESVTEQDSKDSTYSLSSTLTLSKADYEKHKVYACEVTHQGLSSPVTKSFNRGEC
notes: Fab-IL-2-Fab immunoconjugate against FAP with quadruple mutant IL-2
Turning to B2, the binding result is on record as “no binding (tested: 25 nM)” in [3]; “no binding (tested: 25 nM)” in assay [4]; “no binding (tested: 25 nM)” in assay [5]; “no binding” in assay [14]; “binds” in assay [15]. In assay [6], the “EC50 (read off the curve)” value was approximately 20 nM. In [7], the EC50 was determined as 0.85 nM. In addition, the Kd in [8] was 44 nM and 42 nM; in assay [9], 16.7 nM and 18.1 nM; in [10], 13.1 nM and 13 nM; with human FAP-His it was 0.89 nM; in [11] it was 60 nM and 63 nM; in assay [12], 7.8 nM and 8.4 nM. Besides, in assay [13], the Kd was 12 nM and 7.4 nM.
